{"source": "patent US11667688B2", "about": "“Glucagon derivative and a composition comprising a long acting conjugate of the same” (HANMI PHARM. CO., LTD., priority 2015, dated 2023)", "note": "Bridge positions count the residues as written; N and C are the ends. Square brackets hold non-standard residues; d marks the D form. Ends that are not written are not given here. Aib = CC(C)(N)C(=O)O"}
{"molecular_target": "T1, human glucagon receptors (Homo sapiens, UniProt P47871)", "T1 construct": "a region corresponding to Open Reading Frame (ORF) in the cDNA; expressed in transfected cells", "T1 sequence (P47871 26-477)": "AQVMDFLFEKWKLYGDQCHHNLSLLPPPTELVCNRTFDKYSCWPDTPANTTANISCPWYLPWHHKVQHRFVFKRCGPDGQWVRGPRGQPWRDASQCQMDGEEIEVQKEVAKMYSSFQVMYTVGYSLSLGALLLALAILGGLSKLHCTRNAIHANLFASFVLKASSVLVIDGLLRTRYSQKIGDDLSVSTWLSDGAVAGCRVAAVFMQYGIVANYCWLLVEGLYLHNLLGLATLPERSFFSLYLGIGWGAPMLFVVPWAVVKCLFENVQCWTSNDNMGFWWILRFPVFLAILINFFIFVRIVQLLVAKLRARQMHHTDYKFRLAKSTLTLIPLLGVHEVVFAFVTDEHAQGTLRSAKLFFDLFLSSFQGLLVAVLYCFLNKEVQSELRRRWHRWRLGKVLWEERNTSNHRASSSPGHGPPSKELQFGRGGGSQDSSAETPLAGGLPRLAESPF", "experiment": "cAMP activity of glucagon derivatives in CHO cell line transfected with human glucagon receptor (LANCE cAMP kit)", "format": "cell-based", "conditions": "cAMP EC50 compared with that of native glucagon; CHO cells with human glucagon receptor", "method": "PCR was performed using a region corresponding to Open Reading Frame (ORF) in the cDNA (OriGene Technologies, Inc., USA) of human glucagon receptor gene as a template along with the following forward and reverse primers (SEQ ID NOS: 47 and 48, respectively), which include each of the EcoRI and XhoI restriction sites.\nThe PCR product was cloned into a known animal cell expression vector, x0GC/dhfr, to prepare a recombinant vector x0GC/GCGR.\nCHO DG44 cell line cultured in DMEM/F12 (10% FBS) medium was transfected with the recombinant vector x0GC/GCGR using LIPOFECTAMINE®, and cultured in a selection medium containing G418 (1 mg/mL) and methotraxate (10 nM).\nSpecifically, the transfected cell line was subcultured 3 to 4 times a week, aliquoted into a 384-well plate in an amount of 6×10^3 cell lines/well, and cultured for 24 hours. Native glucagon and glucagon derivatives were suspended in Hank's balanced salt solution (HBSS) buffer containing 0.5 mM of 3-isobutyl-1-methylxanthine (IBMX), 0.1% bovine serum albumin (BSA), and 5 mM 4-(2-hydroxyethyl)-1-piperazineethanesulfonic acid (HEPES) with the culture cells, at concentrations of 200 nM and 1600 nM, respectively, continuously subjected into a 4-fold dilution 10 times, applied to a cAMP assay kit (LANCE cAMP 384 kit, PerkinElmer), and added to the cultured cells, and their fluorescence value was measured.", "units": {"In vitro Activity (Relative Activity of SEQ ID NO: 1, %)": "%"}}
{"substance": "-SQGTFTSDYSKYLDECRAKEFVQWLMNT (bridge 15-19; also: name begins with '-': N-terminal residue before chain not given here) [SEQ ID NO: 32, glucagon derivative, no residue at position 1]", "In vitro Activity (Relative Activity of SEQ ID NO: 1, %)": 0.7}
{"substance": "HSQGTFTSDYSKYLDCDRAQDFVQWLMNT (glucagon derivative) [SEQ ID NO: 2]", "In vitro Activity (Relative Activity of SEQ ID NO: 1, %)": 0.6}
{"substance": "HSQGTFTSDYSKYLDCERAQDFVQWLMNT (glucagon derivative) [SEQ ID NO: 3]", "In vitro Activity (Relative Activity of SEQ ID NO: 1, %)": 6.1}
{"substance": "HSQGTFTSDYSKYLDSCDAQDFVQWLMNT (glucagon derivative) [SEQ ID NO: 4]", "In vitro Activity (Relative Activity of SEQ ID NO: 1, %)": "<0.1"}
{"substance": "HSQGTFTSDYSKYLDSCEADDFVQWLMNT (glucagon derivative) [SEQ ID NO: 6]", "In vitro Activity (Relative Activity of SEQ ID NO: 1, %)": "<0.1"}
{"substance": "HSQGTFTSDYSKYLDSCEAQDFVQWLMNT (glucagon derivative) [SEQ ID NO: 5]", "In vitro Activity (Relative Activity of SEQ ID NO: 1, %)": 0.3}
{"substance": "WXQGTFTSDYSKCLDERRAKDFVQWLMNT (W[Aib]QGTFTSDYSKCLDERRAKDFVQWLMNT; bridge 16-20) [SEQ ID NO: 30, glucagon derivative, X = Aib]", "In vitro Activity (Relative Activity of SEQ ID NO: 1, %)": 0.3}
{"substance": "WXQGTFTSDYSKYCDERRAKEFVQWLMNT (W[Aib]QGTFTSDYSKYCDERRAKEFVQWLMNT; bridge 16-20) [SEQ ID NO: 34, glucagon derivative, X = Aib]", "In vitro Activity (Relative Activity of SEQ ID NO: 1, %)": 0.2}
{"substance": "WXQGTFTSDYSKYLDECRAKDFVQWLMNT (W[Aib]QGTFTSDYSKYLDECRAKDFVQWLMNT; bridge 16-20) [SEQ ID NO: 26, glucagon derivative, X = Aib]", "In vitro Activity (Relative Activity of SEQ ID NO: 1, %)": 1.0}
{"substance": "WXQGTFVSDYSKYLDECRAKDFVQWLMNT (W[Aib]QGTFVSDYSKYLDECRAKDFVQWLMNT; bridge 16-20) [SEQ ID NO: 28, glucagon derivative, X = Aib]", "In vitro Activity (Relative Activity of SEQ ID NO: 1, %)": "<0.1"}
{"substance": "YSQGTFTSDYSKYLDSCEADDFVQWLMNT (glucagon derivative) [SEQ ID NO: 7]", "In vitro Activity (Relative Activity of SEQ ID NO: 1, %)": "<0.1"}
{"substance": "YXQGTFCSDYSKYLDERRAKDFVQWLMNT (Y[Aib]QGTFCSDYSKYLDERRAKDFVQWLMNT; bridge 16-20) [SEQ ID NO: 41, glucagon derivative, X = Aib]", "In vitro Activity (Relative Activity of SEQ ID NO: 1, %)": 45.2}
{"substance": "YXQGTFCSDYSKYLDERRAKEFVQWLMNT (Y[Aib]QGTFCSDYSKYLDERRAKEFVQWLMNT; bridge 16-20) [SEQ ID NO: 38, glucagon derivative, X = Aib]", "In vitro Activity (Relative Activity of SEQ ID NO: 1, %)": 167.3}
{"substance": "YXQGTFCSDYSKYLDSRRAQDFVQWLMNT (Y[Aib]QGTFCSDYSKYLDSRRAQDFVQWLMNT) [SEQ ID NO: 42, glucagon derivative, X = Aib]", "In vitro Activity (Relative Activity of SEQ ID NO: 1, %)": 37.9}
{"substance": "YXQGTFTSDCSKYLDERRAKEFVQWLMNT (Y[Aib]QGTFTSDCSKYLDERRAKEFVQWLMNT; bridge 16-20) [SEQ ID NO: 36, glucagon derivative, X = Aib]", "In vitro Activity (Relative Activity of SEQ ID NO: 1, %)": 9.9}
{"substance": "YXQGTFTSDCSKYLDSRRAQDFVQWLMNT (Y[Aib]QGTFTSDCSKYLDSRRAQDFVQWLMNT) [SEQ ID NO: 43, glucagon derivative, X = Aib]", "In vitro Activity (Relative Activity of SEQ ID NO: 1, %)": 1.6}
{"substance": "YXQGTFTSDYSCYLDSRRAQDFVQWLMNT (Y[Aib]QGTFTSDYSCYLDSRRAQDFVQWLMNT) [SEQ ID NO: 13, glucagon derivative, X = Aib]", "In vitro Activity (Relative Activity of SEQ ID NO: 1, %)": 5.2}
{"substance": "YXQGTFTSDYSKCLDEKRAKEFVQWLMNT (Y[Aib]QGTFTSDYSKCLDEKRAKEFVQWLMNT; bridge 16-20) [SEQ ID NO: 24, glucagon derivative, X = Aib]", "In vitro Activity (Relative Activity of SEQ ID NO: 1, %)": 58.0}
{"substance": "YXQGTFTSDYSKCLDERRAKDFVQWLMNT (Y[Aib]QGTFTSDYSKCLDERRAKDFVQWLMNT; bridge 16-20) [SEQ ID NO: 29, glucagon derivative, X = Aib]", "In vitro Activity (Relative Activity of SEQ ID NO: 1, %)": 61.3}
{"substance": "YXQGTFTSDYSKYCDEKRAKEFVQWLMNT (Y[Aib]QGTFTSDYSKYCDEKRAKEFVQWLMNT; bridge 16-20) [SEQ ID NO: 23, glucagon derivative, X = Aib]", "In vitro Activity (Relative Activity of SEQ ID NO: 1, %)": 76.8}
{"substance": "YXQGTFTSDYSKYCDERRAKEFVQWLMNT (Y[Aib]QGTFTSDYSKYCDERRAKEFVQWLMNT; bridge 16-20) [SEQ ID NO: 35, glucagon derivative, X = Aib]", "In vitro Activity (Relative Activity of SEQ ID NO: 1, %)": 17.7}
{"substance": "YXQGTFTSDYSKYLCEKRAKEFVQWLMNT (Y[Aib]QGTFTSDYSKYLCEKRAKEFVQWLMNT; bridge 16-20) [SEQ ID NO: 19, glucagon derivative, X = Aib]", "In vitro Activity (Relative Activity of SEQ ID NO: 1, %)": 12.1}
{"substance": "YXQGTFTSDYSKYLCEKRAQDFVVWLMNT (Y[Aib]QGTFTSDYSKYLCEKRAQDFVVWLMNT) [SEQ ID NO: 15, glucagon derivative, X = Aib]", "In vitro Activity (Relative Activity of SEQ ID NO: 1, %)": 1.1}
{"substance": "YXQGTFTSDYSKYLDCKRAKEFVQWLMNT (Y[Aib]QGTFTSDYSKYLDCKRAKEFVQWLMNT; bridge 17-21) [SEQ ID NO: 31, glucagon derivative, X = Aib]", "In vitro Activity (Relative Activity of SEQ ID NO: 1, %)": 6.3}
{"substance": "YXQGTFTSDYSKYLDCKRAKEFVQWLMNT [SEQ ID NO: 14] (Y[Aib]QGTFTSDYSKYLDCKRAKEFVQWLMNT; not fully specified) [glucagon derivative, X = Aib]", "In vitro Activity (Relative Activity of SEQ ID NO: 1, %)": 18.1}
{"substance": "YXQGTFTSDYSKYLDCRRAQVFVQWLMRT (Y[Aib]QGTFTSDYSKYLDCRRAQVFVQWLMRT) [SEQ ID NO: 16, glucagon derivative, X = Aib]", "In vitro Activity (Relative Activity of SEQ ID NO: 1, %)": 4.2}
{"substance": "YXQGTFTSDYSKYLDCVRAQDFVQWLMRT (Y[Aib]QGTFTSDYSKYLDCVRAQDFVQWLMRT) [SEQ ID NO: 17, glucagon derivative, X = Aib]", "In vitro Activity (Relative Activity of SEQ ID NO: 1, %)": 23.2}
{"substance": "YXQGTFTSDYSKYLDECRAKEFVQWLMNT (Y[Aib]QGTFTSDYSKYLDECRAKEFVQWLMNT; bridge 16-20) [SEQ ID NO: 20, glucagon derivative, X = Aib]", "In vitro Activity (Relative Activity of SEQ ID NO: 1, %)": 299.7}
{"substance": "YXQGTFTSDYSKYLDEKCAKEFVQWLMNT [SEQ ID NO: 11] (Y[Aib]QGTFTSDYSKYLDEKCAKEFVQWLMNT; not fully specified) [glucagon derivative, X = Aib]", "In vitro Activity (Relative Activity of SEQ ID NO: 1, %)": 4.6}
{"substance": "YXQGTFTSDYSKYLDEKCAKEFVQWLMNT [SEQ ID NO: 21] (Y[Aib]QGTFTSDYSKYLDEKCAKEFVQWLMNT; bridge 16-20) [glucagon derivative, X = Aib]", "In vitro Activity (Relative Activity of SEQ ID NO: 1, %)": 57.8}
{"substance": "YXQGTFTSDYSKYLDEKRAKCFVQWLMNT (Y[Aib]QGTFTSDYSKYLDEKRAKCFVQWLMNT; bridge 16-20) [SEQ ID NO: 25, glucagon derivative, X = Aib]", "In vitro Activity (Relative Activity of SEQ ID NO: 1, %)": 46.9}
{"substance": "YXQGTFTSDYSKYLDEKRAKEFVQWLMNTC (Y[Aib]QGTFTSDYSKYLDEKRAKEFVQWLMNTC; bridge 16-20) [SEQ ID NO: 12, glucagon derivative, X = Aib]", "In vitro Activity (Relative Activity of SEQ ID NO: 1, %)": 56.3}
{"substance": "YXQGTFTSDYSKYLDEKRCKEFVQWLMNT (Y[Aib]QGTFTSDYSKYLDEKRCKEFVQWLMNT; bridge 16-20) [SEQ ID NO: 22, glucagon derivative, X = Aib]", "In vitro Activity (Relative Activity of SEQ ID NO: 1, %)": 147.8}
{"substance": "YXQGTFTSDYSKYLDERRAKEFVQWLMNTC (Y[Aib]QGTFTSDYSKYLDERRAKEFVQWLMNTC; bridge 16-20) [SEQ ID NO: 37, glucagon derivative, X = Aib]", "In vitro Activity (Relative Activity of SEQ ID NO: 1, %)": 225.5}
{"substance": "YXQGTFTSDYSKYLDSCDADDFVVWLINT (Y[Aib]QGTFTSDYSKYLDSCDADDFVVWLINT) [SEQ ID NO: 10, glucagon derivative, X = Aib]", "In vitro Activity (Relative Activity of SEQ ID NO: 1, %)": "<0.1"}
{"substance": "YXQGTFTSDYSKYLDSCDAQDFVQWLINT (Y[Aib]QGTFTSDYSKYLDSCDAQDFVQWLINT) [SEQ ID NO: 8, glucagon derivative, X = Aib]", "In vitro Activity (Relative Activity of SEQ ID NO: 1, %)": "<0.1"}
{"substance": "YXQGTFTSDYSKYLDSCDAQDFVVWLINT (Y[Aib]QGTFTSDYSKYLDSCDAQDFVVWLINT) [SEQ ID NO: 9, glucagon derivative, X = Aib]", "In vitro Activity (Relative Activity of SEQ ID NO: 1, %)": "<0.1"}
{"substance": "YXQGTFTSDYSKYLDSRRACDFRLWLMNT (Y[Aib]QGTFTSDYSKYLDSRRACDFRLWLMNT) [SEQ ID NO: 18, glucagon derivative, X = Aib]", "In vitro Activity (Relative Activity of SEQ ID NO: 1, %)": "<0.1"}
{"substance": "YXQGTFTSDYSKYLDSRRAQDFVQWLMNT (Aib at position 2; glucagon derivative; (2) Xaa is aminoisobutyric acid (Aib)) [SEQ ID NO: 33, glucagon derivative, X = Aib]", "In vitro Activity (Relative Activity of SEQ ID NO: 1, %)": 108.2}
{"substance": "YXQGTFTSDYSKYLDSRRAQDFVQWLMNTC (Aib at position 2; glucagon derivative; (2) Xaa is aminoisobutyric acid (Aib)) [SEQ ID NO: 44, glucagon derivative, X = Aib]", "In vitro Activity (Relative Activity of SEQ ID NO: 1, %)": 75.4}
{"substance": "YXQGTFVSDCSKYLDERRAKDFVQWLMNT (Y[Aib]QGTFVSDCSKYLDERRAKDFVQWLMNT; bridge 16-20) [SEQ ID NO: 39, glucagon derivative, X = Aib]", "In vitro Activity (Relative Activity of SEQ ID NO: 1, %)": 3.7}
